Article PMC6581795, “Phosphorylation of FANCD2 Inhibits the FANCD2/FANCI Complex and Suppresses the Fanconi Anemia Pathway in the Absence of DNA Damage”

Legend:
FANCD2 WT;FANCI = FANCD2 WT;FANCI (Homo sapiens;Homo sapiens?, UniProt Q9BXW9;Q9NVI1 1-1451;1-1328, |); assay: EMSA; untreated; EMSA: 1 nM DNA, 25 mM Tris-HCl pH 7.5, 100 mM NaCl, 1 mM EDTA, 6% glycerol, 1 mM DTT, room temperature 1 h; 4% PAGE 0.4x TBE at 4 C; conditions: protein: recombinant;recombinant; copies: 1;1
FANCD2-6A;FANCI = FANCD2-6A;FANCI (Homo sapiens;Homo sapiens?, UniProt Q9BXW9;Q9NVI1 1-1451;1-1328, S882A;T884A;S886A;S891A;T896A;S898A|); assay: EMSA; untreated; similar to WT; EMSA: 1 nM DNA, 25 mM Tris-HCl pH 7.5, 100 mM NaCl, 1 mM EDTA, 6% glycerol, 1 mM DTT, room temperature 1 h; 4% PAGE 0.4x TBE at 4 C; conditions: protein: recombinant;recombinant; copies: 1;1
FANCD2-6A;FANCI, sequence (Q9BXW9 whole entry S882A/T884A/S886A/S891A/T896A/S898A, chain 1 of 2): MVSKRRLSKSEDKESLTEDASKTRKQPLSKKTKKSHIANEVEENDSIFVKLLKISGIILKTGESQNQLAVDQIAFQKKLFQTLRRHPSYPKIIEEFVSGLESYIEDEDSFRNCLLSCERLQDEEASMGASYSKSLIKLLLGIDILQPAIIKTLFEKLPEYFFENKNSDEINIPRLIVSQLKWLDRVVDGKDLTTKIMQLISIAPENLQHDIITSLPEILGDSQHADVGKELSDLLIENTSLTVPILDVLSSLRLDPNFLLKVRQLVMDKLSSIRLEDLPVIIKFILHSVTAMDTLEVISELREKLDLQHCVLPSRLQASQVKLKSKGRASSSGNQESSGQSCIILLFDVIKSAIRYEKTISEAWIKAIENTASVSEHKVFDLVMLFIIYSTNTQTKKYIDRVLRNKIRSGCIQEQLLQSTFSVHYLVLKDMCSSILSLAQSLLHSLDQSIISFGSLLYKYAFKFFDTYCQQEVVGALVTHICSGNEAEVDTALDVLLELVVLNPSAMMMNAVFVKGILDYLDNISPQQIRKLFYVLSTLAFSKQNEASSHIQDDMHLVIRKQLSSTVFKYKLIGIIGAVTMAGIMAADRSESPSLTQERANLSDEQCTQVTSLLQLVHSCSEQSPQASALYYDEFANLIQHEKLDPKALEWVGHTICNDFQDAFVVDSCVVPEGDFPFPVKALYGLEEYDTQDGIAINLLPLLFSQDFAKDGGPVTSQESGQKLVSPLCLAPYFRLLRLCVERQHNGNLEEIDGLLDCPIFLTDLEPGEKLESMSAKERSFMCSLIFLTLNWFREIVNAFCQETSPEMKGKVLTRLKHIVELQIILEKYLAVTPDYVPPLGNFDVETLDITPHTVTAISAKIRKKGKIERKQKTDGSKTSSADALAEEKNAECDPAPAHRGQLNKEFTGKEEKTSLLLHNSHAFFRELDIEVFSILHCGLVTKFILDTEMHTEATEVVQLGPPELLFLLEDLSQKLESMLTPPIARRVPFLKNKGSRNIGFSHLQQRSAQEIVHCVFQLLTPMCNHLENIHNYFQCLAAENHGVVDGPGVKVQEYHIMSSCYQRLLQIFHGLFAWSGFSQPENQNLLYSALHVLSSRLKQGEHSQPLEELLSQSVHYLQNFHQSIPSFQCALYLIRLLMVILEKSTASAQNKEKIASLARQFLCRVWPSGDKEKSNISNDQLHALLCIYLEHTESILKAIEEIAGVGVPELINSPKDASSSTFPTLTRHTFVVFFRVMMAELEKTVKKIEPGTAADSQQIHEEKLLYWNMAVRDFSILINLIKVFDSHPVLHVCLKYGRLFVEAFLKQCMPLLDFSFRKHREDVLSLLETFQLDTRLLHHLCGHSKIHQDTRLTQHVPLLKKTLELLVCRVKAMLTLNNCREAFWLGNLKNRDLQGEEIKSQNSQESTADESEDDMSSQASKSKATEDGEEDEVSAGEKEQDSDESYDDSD
FANCD2-6A;FANCI, sequence (Q9NVI1 whole entry, stated change not applied, chain 2 of 2): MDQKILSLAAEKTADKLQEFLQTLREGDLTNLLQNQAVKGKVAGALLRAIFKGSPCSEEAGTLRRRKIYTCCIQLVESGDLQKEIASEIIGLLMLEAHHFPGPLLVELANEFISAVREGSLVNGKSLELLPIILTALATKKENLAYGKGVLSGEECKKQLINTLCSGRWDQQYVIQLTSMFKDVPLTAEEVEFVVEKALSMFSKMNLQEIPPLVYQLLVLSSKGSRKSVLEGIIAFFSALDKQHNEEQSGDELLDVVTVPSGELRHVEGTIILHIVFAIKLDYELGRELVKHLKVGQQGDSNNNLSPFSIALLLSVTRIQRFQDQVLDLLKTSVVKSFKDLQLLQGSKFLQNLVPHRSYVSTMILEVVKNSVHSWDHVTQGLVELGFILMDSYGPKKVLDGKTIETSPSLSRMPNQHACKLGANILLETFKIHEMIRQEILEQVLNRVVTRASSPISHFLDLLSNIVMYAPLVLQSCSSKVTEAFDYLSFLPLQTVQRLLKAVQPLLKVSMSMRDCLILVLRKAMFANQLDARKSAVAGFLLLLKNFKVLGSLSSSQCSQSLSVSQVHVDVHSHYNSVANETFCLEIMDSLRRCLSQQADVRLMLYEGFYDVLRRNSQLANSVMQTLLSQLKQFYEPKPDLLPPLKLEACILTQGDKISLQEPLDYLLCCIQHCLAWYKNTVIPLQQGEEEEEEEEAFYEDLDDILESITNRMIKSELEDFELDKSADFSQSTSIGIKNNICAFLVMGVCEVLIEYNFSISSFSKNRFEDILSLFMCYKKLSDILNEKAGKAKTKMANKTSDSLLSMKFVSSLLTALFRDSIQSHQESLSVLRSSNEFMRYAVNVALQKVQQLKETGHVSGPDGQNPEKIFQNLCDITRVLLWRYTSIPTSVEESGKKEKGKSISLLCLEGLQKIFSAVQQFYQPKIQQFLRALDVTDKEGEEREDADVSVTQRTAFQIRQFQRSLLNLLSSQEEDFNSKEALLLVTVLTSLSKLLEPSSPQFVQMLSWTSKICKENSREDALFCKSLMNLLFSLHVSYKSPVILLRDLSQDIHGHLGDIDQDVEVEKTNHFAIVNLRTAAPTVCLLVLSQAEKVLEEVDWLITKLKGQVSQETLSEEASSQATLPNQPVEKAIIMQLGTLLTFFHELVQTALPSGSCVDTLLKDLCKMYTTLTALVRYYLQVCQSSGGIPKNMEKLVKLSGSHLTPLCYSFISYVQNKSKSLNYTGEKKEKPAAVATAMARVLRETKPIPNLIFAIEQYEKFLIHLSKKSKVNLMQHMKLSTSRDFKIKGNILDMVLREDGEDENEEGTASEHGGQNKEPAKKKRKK

FANCD2 WT;FANCI, sequence (Q9BXW9 whole entry, chain 1 of 2): as the sequence (Q9BXW9 whole entry S882A/T884A/S886A/S891A/T896A/S898A, chain 1 of 2) above, with A882S, A884T, A886S, A891S, A896T, A898S counted along it
FANCD2 WT;FANCI, sequence (Q9NVI1 whole entry, chain 2 of 2): as the sequence (Q9NVI1 whole entry, stated change not applied, chain 2 of 2) above

B1: ICL14 Y-shaped DNA (mixed)
DNA 1: CATTGTGAATTCGCCTCTCTGTCTAGCCGAAGCTCGAAACGATCTTGTGC
DNA 2: GTCCATCAAAGTTCGACTGTGCGGCTAGACAGAGAGGCGAATTCACAATG
- binding result (FANCD2 WT;FANCI): binds
- binding result (FANCD2-6A;FANCI): binds
